What was measured:
[1] = target: glial cell line derived neurotrophic factor (GDNF), R&D Systems 212-GD-010 (UniProt P39905); assay: SPR (Biacore T200), 1:1 global fit
[2] = target: glial cell line derived neurotrophic factor (GDNF), R&D Systems 212-GD-010 (UniProt P39905); assay: SPR, isoaffinity graph
[3] = target: glial cell line derived neurotrophic factor (GDNF), R&D Systems 212-GD-010 (UniProt P39905); assay: SPR (Biacore T200), biotinylated antibody on CAP chip, 1:1 fit
[4] = target: glial cell line derived neurotrophic factor (GDNF), R&D Systems 212-GD-010 (UniProt P39905); assay: c-PLA, buffer; GDNF 1.00E-09 M
[5] = target: glial cell line derived neurotrophic factor (GDNF), R&D Systems 212-GD-010 (UniProt P39905); assay: c-PLA, buffer; GDNF 1.00E-13 M
[6] = target: glial cell line derived neurotrophic factor (GDNF), R&D Systems 212-GD-010 (UniProt P39905); assay: c-PLA, buffer; GDNF 1.00E-10 M
[7] = target: glial cell line derived neurotrophic factor (GDNF), R&D Systems 212-GD-010 (UniProt P39905); assay: c-PLA, buffer; GDNF 1.00E-14 M
[8] = target: glial cell line derived neurotrophic factor (GDNF), R&D Systems 212-GD-010 (UniProt P39905); assay: t-PLA, buffer; GDNF 1.00E-12 M
[9] = target: glial cell line derived neurotrophic factor (GDNF), R&D Systems 212-GD-010 (UniProt P39905); assay: t-PLA, buffer; GDNF 1.00E-14 M
[10] = target: glial cell line derived neurotrophic factor (GDNF), R&D Systems 212-GD-010 (UniProt P39905); assay: t-PLA, buffer; GDNF 1.00E-13 M
[11] = target: glial cell line derived neurotrophic factor (GDNF), R&D Systems 212-GD-010 (UniProt P39905); assay: t-PLA, buffer; GDNF 1.00E-08 M
[12] = target: glial cell line derived neurotrophic factor (GDNF), R&D Systems 212-GD-010 (UniProt P39905); assay: t-PLA, buffer; GDNF 1.00E-11 M
[13] = target: glial cell line derived neurotrophic factor (GDNF), R&D Systems 212-GD-010 (UniProt P39905); assay: SPR, value from the software's off-rate, beyond the sensitivity range of the instrument
[14] = target: glial cell line derived neurotrophic factor (GDNF), R&D Systems 212-GD-010 (UniProt P39905); assay: c-PLA, buffer; GDNF 1.00E-08 M
[15] = target: glial cell line derived neurotrophic factor (GDNF), R&D Systems 212-GD-010 (UniProt P39905); assay: t-PLA, buffer; GDNF 1.00E-10 M
[16] = target: glial cell line derived neurotrophic factor (GDNF), R&D Systems 212-GD-010 (UniProt P39905); assay: SPR, off-rate given by the software, beyond the sensitivity range of the instrument
[17] = target: glial cell line derived neurotrophic factor (GDNF), R&D Systems 212-GD-010 (UniProt P39905); assay: t-PLA, buffer; GDNF 1.00E-09 M
[18] = target: glial cell line derived neurotrophic factor (GDNF), R&D Systems 212-GD-010 (UniProt P39905); assay: c-PLA, buffer; GDNF 1.00E-12 M
[19] = target: glial cell line derived neurotrophic factor (GDNF), R&D Systems 212-GD-010 (UniProt P39905); assay: BLI (Octet RED), antibody on protein G sensors, 1:1 global fit
[20] = target: glial cell line derived neurotrophic factor (GDNF), R&D Systems 212-GD-010 (UniProt P39905); assay: c-PLA, buffer; GDNF 1.00E-11 M
[21] = target: insulin-like growth factor II (IGF-II), R&D Systems 292-G2-050 (UniProt P01344); assay: SPR (Biacore T200), 1:1 global fit
UniProt P01344, sequence (P01344 25-91 limits assumed): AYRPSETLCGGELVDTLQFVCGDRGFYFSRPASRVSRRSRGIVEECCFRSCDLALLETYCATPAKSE

[22] = target: insulin-like growth factor II (IGF-II), R&D Systems 292-G2-050 (UniProt P01344); assay: SPR, isoaffinity graph
[23] = target: insulin-like growth factor II (IGF-II), R&D Systems 292-G2-050 (UniProt P01344); assay: c-PLA, buffer; IGF-II 1.00E-09 M
[24] = target: insulin-like growth factor II (IGF-II), R&D Systems 292-G2-050 (UniProt P01344); assay: SPR (Biacore T200), biotinylated antibody on CAP chip, 1:1 fit
[25] = target: insulin-like growth factor II (IGF-II), R&D Systems 292-G2-050 (UniProt P01344); assay: t-PLA, buffer; IGF-II 1.00E-11 M
[26] = target: insulin-like growth factor II (IGF-II), R&D Systems 292-G2-050 (UniProt P01344); assay: c-PLA, buffer; IGF-II 1.00E-07 M
[27] = target: insulin-like growth factor II (IGF-II), R&D Systems 292-G2-050 (UniProt P01344); assay: t-PLA, buffer; IGF-II 1.00E-07 M
[28] = target: insulin-like growth factor II (IGF-II), R&D Systems 292-G2-050 (UniProt P01344); assay: t-PLA, buffer; IGF-II 1.00E-09 M
[29] = target: insulin-like growth factor II (IGF-II), R&D Systems 292-G2-050 (UniProt P01344); assay: t-PLA, buffer; IGF-II 1.00E-06 M
[30] = target: insulin-like growth factor II (IGF-II), R&D Systems 292-G2-050 (UniProt P01344); assay: c-PLA, buffer; IGF-II 1.00E-11 M
[31] = target: insulin-like growth factor II (IGF-II), R&D Systems 292-G2-050 (UniProt P01344); assay: c-PLA, buffer; IGF-II 1.00E-10 M
[32] = target: insulin-like growth factor II (IGF-II), R&D Systems 292-G2-050 (UniProt P01344); assay: c-PLA, buffer; IGF-II 1.00E-08 M
[33] = target: insulin-like growth factor II (IGF-II), R&D Systems 292-G2-050 (UniProt P01344); assay: t-PLA, buffer; IGF-II 1.00E-08 M
[34] = target: insulin-like growth factor II (IGF-II), R&D Systems 292-G2-050 (UniProt P01344); assay: c-PLA, buffer; IGF-II 1.00E-06 M
[35] = target: insulin-like growth factor II (IGF-II), R&D Systems 292-G2-050 (UniProt P01344); assay: BLI (Octet RED), antibody on protein G sensors, 1:1 global fit
[36] = target: insulin-like growth factor II (IGF-II), R&D Systems 292-G2-050 (UniProt P01344); assay: t-PLA, buffer; IGF-II 1.00E-10 M
[37] = target: macrophage migration inhibitory factor (MIF), R&D Systems 289-MF-002 (UniProt P14174); assay: SPR (Biacore T200), 1:1 global fit
UniProt P14174, sequence (P14174 whole entry): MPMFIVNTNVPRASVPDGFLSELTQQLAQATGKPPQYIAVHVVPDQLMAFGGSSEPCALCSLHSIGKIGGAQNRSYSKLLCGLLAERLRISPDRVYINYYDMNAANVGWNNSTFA

[38] = target: macrophage migration inhibitory factor (MIF), R&D Systems 289-MF-002 (UniProt P14174); assay: SPR, isoaffinity graph
[39] = target: macrophage migration inhibitory factor (MIF), R&D Systems 289-MF-002 (UniProt P14174); assay: SPR (Biacore T200), biotinylated antibody on CAP chip, 1:1 fit
[40] = target: macrophage migration inhibitory factor (MIF), R&D Systems 289-MF-002 (UniProt P14174); assay: t-PLA, buffer; MIF 1.00E-08 M
[41] = target: macrophage migration inhibitory factor (MIF), R&D Systems 289-MF-002 (UniProt P14174); assay: t-PLA, buffer; MIF 1.00E-10 M
[42] = target: macrophage migration inhibitory factor (MIF), R&D Systems 289-MF-002 (UniProt P14174); assay: t-PLA, buffer; MIF 1.00E-11 M
[43] = target: macrophage migration inhibitory factor (MIF), R&D Systems 289-MF-002 (UniProt P14174); assay: c-PLA, buffer; MIF 1.00E-09 M
[44] = target: macrophage migration inhibitory factor (MIF), R&D Systems 289-MF-002 (UniProt P14174); assay: t-PLA, buffer; MIF 1.00E-09 M
[45] = target: macrophage migration inhibitory factor (MIF), R&D Systems 289-MF-002 (UniProt P14174); assay: c-PLA, buffer; MIF 1.00E-07 M
[46] = target: macrophage migration inhibitory factor (MIF), R&D Systems 289-MF-002 (UniProt P14174); assay: t-PLA, buffer; MIF 1.00E-07 M
[47] = target: macrophage migration inhibitory factor (MIF), R&D Systems 289-MF-002 (UniProt P14174); assay: c-PLA, buffer; MIF 1.00E-11 M
[48] = target: macrophage migration inhibitory factor (MIF), R&D Systems 289-MF-002 (UniProt P14174); assay: t-PLA, buffer; MIF 3.00E-07 M
[49] = target: macrophage migration inhibitory factor (MIF), R&D Systems 289-MF-002 (UniProt P14174); assay: c-PLA, buffer; MIF 1.00E-10 M
[50] = target: macrophage migration inhibitory factor (MIF), R&D Systems 289-MF-002 (UniProt P14174); assay: c-PLA, buffer; MIF 3.00E-07 M
[51] = target: macrophage migration inhibitory factor (MIF), R&D Systems 289-MF-002 (UniProt P14174); assay: BLI (Octet RED), antibody on protein G sensors, 1:1 global fit
[52] = target: macrophage migration inhibitory factor (MIF), R&D Systems 289-MF-002 (UniProt P14174); assay: c-PLA, buffer; MIF 1.00E-08 M

UniProt P39905, sequence (P39905 78-211 limits assumed): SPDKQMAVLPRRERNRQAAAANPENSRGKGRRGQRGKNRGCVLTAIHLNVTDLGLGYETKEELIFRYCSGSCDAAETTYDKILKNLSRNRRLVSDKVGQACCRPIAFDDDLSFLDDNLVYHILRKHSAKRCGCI

## affinity-purified polyclonal anti-GDNF antibody (R&D Systems AF-212-NA)
[1]
  Kd: < 0.00071 nM
  koff: < 1e-05 s⁻¹
  kon: 1.35e+07 M⁻¹ s⁻¹
[2]
  Kd: < 0.005 nM
[3]
  Kd: < 0.00071 nM
  koff: < 1e-05 s⁻¹
  kon: 1.4e+07 M⁻¹ s⁻¹
[4]
  Counts: 427000
  SBR: 28300
[5]
  Counts: 172
  SBR: 11
[6]
  Counts: 59400
  SBR: 3930
[7]
  Counts: 17
  SBR: 1.1
[8]
  Counts: 6.17e+06
  SBR: 9.1
[9]
  Counts: 1.92e+06
  SBR: 2.8
[10]
  Counts: 7.19e+06
  SBR: 11
[11]
  Counts: 1.02e+09
  SBR: 1520
[12]
  Counts: 6.06e+07
  SBR: 90
[13]
  Kd: 0.000173 nM
[14]
  Counts: 214000
  SBR: 14200
[15]
  Counts: 6.04e+08
  SBR: 896
[16]
  koff: 2.34e-06 s⁻¹
[17]
  Counts: 2.24e+09
  SBR: 3320
[18]
  Counts: 283
  SBR: 19
[19]
  Kd: < 0.00254 nM
  koff: < 1e-06 s⁻¹
  kon: 393000 M⁻¹ s⁻¹
[20]
  Counts: 3340
  SBR: 221

## affinity-purified polyclonal anti-IGF-II antibody (R&D Systems AF-292-NA)
[21]
  Kd: 0.0511 nM
  koff: 2.49e-05 s⁻¹
  kon: 486000 M⁻¹ s⁻¹
[22]
  Kd: > 0.05 nM
[23]
  Counts: 527
  SBR: 2.4
[24]
  Kd: 0.051 nM
  koff: 2.5e-05 s⁻¹
  kon: 490000 M⁻¹ s⁻¹
[25]
  Counts: 400000
  SBR: 0.5
[26]
  Counts: 50300
  SBR: 230
[27]
  Counts: 5.89e+07
  SBR: 81
[28]
  Counts: 641000
  SBR: 0.9
[29]
  Counts: 4.77e+07
  SBR: 65
[30]
  Counts: 171
  SBR: 0.8
[31]
  Counts: 215
  SBR: 1
[32]
  Counts: 12200
  SBR: 56
[33]
  Counts: 1.75e+07
  SBR: 24
[34]
  Counts: 49700
  SBR: 227
[35]
  Kd: 1.17 nM
  koff: 0.000321 s⁻¹
  kon: 274000 M⁻¹ s⁻¹
[36]
  Counts: 145000
  SBR: 0.2

## affinity-purified polyclonal anti-MIF antibody (R&D Systems AF-289-PB)
[37]
  Kd: 0.0826 nM
  koff: 9.41e-05 s⁻¹
  kon: 1.14e+06 M⁻¹ s⁻¹
[38]
  Kd: > 0.05 nM
[39]
  Kd: 0.083 nM
  koff: 9.4e-05 s⁻¹
  kon: 1.1e+06 M⁻¹ s⁻¹
[40]
  Counts: 3.97e+07
  SBR: 21
[41]
  Counts: 1.84e+06
  SBR: 1
[42]
  Counts: 681000
  SBR: 0.4
[43]
  Counts: 12300
  SBR: 724
[44]
  Counts: 1.43e+07
  SBR: 7
[45]
  Counts: 39600
  SBR: 2330
[46]
  Counts: 5.2e+07
  SBR: 27
[47]
  Counts: 96.6
  SBR: 5.7
[48]
  Counts: 4.66e+07
  SBR: 24
[49]
  Counts: 1020
  SBR: 60
[50]
  Counts: 36900
  SBR: 2170
[51]
  Kd: 1.75 nM
  koff: 0.000532 s⁻¹
  kon: 304000 M⁻¹ s⁻¹
[52]
  Counts: 29800
  SBR: 1750

Reference: US20190360025A1
